Source: patent US10413588B2, “Probiotic function of human intelectin” (Wisconsin Alumni Research Foundation, priority 2015, dated 2019)

Experiments:
Assay in all cases: Flow cytometry binding to microbiome strain
Conditions in all cases: fixed cells; 15 μg/mL Strep-tagged-hIntL-1, 10 mM CaCl2 vs EDTA control
Lactobacillus reuteri = tested on: Lactobacillus reuteri
Protocol: (§1) The inventors have begun to examine the binding of hIntL-1 to bacteria known to reside in the human intestine. Strains of relevant bacteria were grown anaerobically. The samples are fixed using 1% formaldehyde for 30 min on ice. […] Fixed cells are exposed to Strep-tagged (IBS Lifesciences) -hIntL-1. The Strep-tag not necessary for function but added because it facilitates purification and detection. Cells were analyzed by flow cytometry on a BD FACSCalibur or LSRII. Bacterial cells were identified using either propidium iodide (PI) or DAPI. An anti-Strep-tag antibody conjugated to the fluorophore Oyster 645 nm was used to detect the population of bacteria bound by hIntL-1.
(§2) To determine whether observed binding is dependent on hIntL-1 interaction with microbial glycans, the inventors take advantage of critical role of calcium ions in hIntL-1 binding. The addition of the calcium ion chelator EDTA, which sequesters bound calcium ions, serves as an important specificity control. Fixed bacteria are incubated in 20 mM HEPES (pH 7.2), 150 mM NaCl, 10 mM CaCl2, 15 μg/mL Strep-tagged-hIntL-1, 0.1% bovine serum albumin (BSA), 0.05% Tween-20, 2 μg/mL StrepMAB-Classic conjugated to Oyster 645 (IBA Lifesciences, cat. no.: 2-1555-050). For the cells incubated in the absence of calcium ions, the following solution is used 20 mM HEPES (pH 7.2), 150 mM NaCl, 5 mM EDTA, 15 μg/mL Strep-tagged-hIntL-1, 0.1% bovine serum albumin (BSA), 0.05% tween-20, 2 μg/mL StrepMAB-Classic conjugated to Oyster 645 (IBA Lifesciences, cat. no.: 2-1555-050). Cell samples were analyzed by flow cytometry consecutively using an identical instrument setting. The percentages of unstained cells, cells stained in the presence of calcium ions, and cells stained in the presence of EDTA were directly compared. Increased hIntL-1 binding signal in the presence of calcium ions when compared to unstained cells or the EDTA sample indicates specific binding to the surface glycans of that strain of bacteria. FIG. 17 is representative of the data obtained. A list of bacteria bound by hIntL-1 can be found in Table 1. […]

Bifidobacterium dentium = tested on: Bifidobacterium dentium
Protocol: as §1, §2

[1] = tested on: Bacteroides xylanisolvens
Protocol: as §1, §2

B1: hIntL-1: human lectin intelectin-1, accession no. Q8WWA0; recombinant disulfide-linked trimer from HEK 293T cells, used also N-terminally Strep-tagged (Strep-hIntL-1) (protein, listed as Homo sapiens)
chain: MNQLSFLLFLIATTRGWSTDEANTYFKEWTCSSSPSLPRSCKEIKDECPSAFDGLYFLRTENGVIYQTFCDMTSGGGGWTLVASVHENDMRGKCTVGDRWSSQQGSKAVYPEGDGNWANYNTFGSAEAATSDDYKNPGYYDIQAKDLGIWHVPNKSPMQHWRNSSLLRYRTDTGFLQTLGHNLFGIYQKYPVKYGEGKCWTDNGPVIPVVYDFGDAQKTASYYSPYGQREFTAGFVQFRVFNNERAANALCAGMRVTGCNTEHHCIGGGGYFPEASPQQCGDFSGFDWSGYGTHVGYSSSREITEAAVLLFYR
- binding of hIntL-1 to Lactobacillus reuteri by flow cytometry (Lactobacillus reuteri): binds
- binding of hIntL-1 to Bifidobacterium dentium by flow cytometry (Bifidobacterium dentium): binds
- binding of hIntL-1 to Bacteroides xylanisolvens by flow cytometry [1]: not
